The text below walks through data of patent KR20220081857A (dated 2022).

The labels stand for the following.
T1: 인간 OX40L 단백질 (OX40L-his; ACROBiosystems Cat# OXL-H52Q8) (human, UniProt P23510 51-183)
T1 sequence: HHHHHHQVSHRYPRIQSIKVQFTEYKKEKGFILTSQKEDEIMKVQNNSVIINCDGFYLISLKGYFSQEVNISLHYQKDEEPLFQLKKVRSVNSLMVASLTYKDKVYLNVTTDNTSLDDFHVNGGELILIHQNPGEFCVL

B1: 이중 특이성 항체 I3F07-TNFαi HC (bispecific antibody)
heavy: not shown
light: DIVLTQSPLSLPVSLGDQASISCRSSQSLVHSNGNTYLHWYLQKPGQSPKLLIYKVSNRFSGVPDRFSGSGSGTDFTLKISRVEAEDLGVYFCSQSTHVPPTFGGGSKLEIKRTVAAPSVFIFPPSDEQLKSGTASVVCLLNNFYPREAKVQWKVDNALQSGNSQESVTEQDSKDSTYSLSSTLTLSKADYEKHKVYACEVTHQGLSSPVTKSFNRGEC
B2: reference 항-OX40L 항체 O4L (oxelumab VH/VL) (antibody, human IgG4 S228P, kappa, V domains shown)
VH: EVQLLESGGGLVQPGGSLRLSCAASGFTFNSYAMSWVRQAPGKGLEWVSIISGSGGFTYYADSVKGRFTISRDNSRTTLYLQMNSLRAEDTAVYYCAKDRLVAPGTFDYWGQGALVTVSS
VL: DIQMTQSPSSLSASVGDRVTITCRASQGISSWLAWYQQKPEKAPKSLIYAASSLQSGVPSRFSGSGSGTDFTLTISSLQPEDFATYYCQQYNSYPYTFGQGTKLEIKR
B3: 이중 특이성 항체 02C09-TNFαi HC (bispecific antibody)
heavy: not shown
light: DIQMTQSPSSLSASLGDRVTITCRASQSIGRWLAWYQQKPGNAPKLLIYKATILESGVPSRFSGSGSGTEFALTISSLQPDDFSAYYCQQYNSYPYTFGQGTKLEIKRTVAAPSVFIFPPSDEQLKSGTASVVCLLNNFYPREAKVQWKVDNALQSGNSQESVTEQDSKDSTYSLSSTLTLSKADYEKHKVYACEVTHQGLSSPVTKSFNRGEC
B4: 항 OX40L 항체 Hu3F07 (antibody, human IgG4 S228P, kappa, V domains shown)
VH: QVQLVQSGAEVKKPGASVKVSCKASGFTFPDYWMHWVRQAPGQGLEWMGEIDPPNGRTNYNEKFKSRVTMTRDTSISTAYMELSRLRSDDTAVYYCARGIYYVDYWGQGTTVTVSS
VL: DIVMTQSPLSLPVTLGEPASISCRSSQSLVHSNGNTYLHWYLQKPGQSPQLLIYKVSNRFSGVPDRFSGSGSGTDFTLKISRVEAEDVGVYYCSQSTHVPPTFGGGTKLEIKR
B5: 항 OX40L 항체 21G07 (antibody, human IgG4 S228P, kappa, V domains shown)
VH: QVQLQQSGAELVKPGASVKLSCKASGYTFTNYWMQWVKQRPGQGLEWIGEIDPSDGRTNYNEKFKNKATLTVDRSSSTAYIKLSSLTSEDSAVYYCAREVSLRSMDYWGQGTSVTVSS
VL: DIVLTQSPLSLPVSLGDQASISCRSSQSLVHSNGNTYLHWYLQKPGQSPKLLIYKVSNRFSGVPDRFSGSGSGTDFTLKISRVEAEDLGVYFCSQSTHVPFTFGSGTKLEIKR
B6: 항 OX40L 항체 10H07 (antibody, human IgG4 S228P, kappa, V domains shown)
VH: QVYLQQSGAELVKPGASVKLSCKASGYTFTDYWMHWVKQRPGQGLEWIGEIDPGNGRTNYNEKFKNKATLSVDKSSNTAYMQFSSLTSEDSAVFYCASEGAGRGFPYWGQGTLVTVSA
VL: DVVLTQTPLSLPVSLGDQASISCRSSQSLVHSNGNTYLHWYLQKPGQSPKLLIYKVSNRFSGVPDRFSGSGSGTDFTLKISRVEAEDLGVYFCSQSTHVPWTFGGGTKLEIKR
B7: 이중 특이성 항체 Hu3F07-TNFαi HC (bispecific antibody)
heavy: not shown
light: DIVMTQSPLSLPVTLGEPASISCRSSQSLVHSNGNTYLHWYLQKPGQSPQLLIYKVSNRFSGVPDRFSGSGSGTDFTLKISRVEAEDVGVYYCSQSTHVPPTFGGGTKLEIKRTVAAPSVFIFPPSDEQLKSGTASVVCLLNNFYPREAKVQWKVDNALQSGNSQESVTEQDSKDSTYSLSSTLTLSKADYEKHKVYACEVTHQGLSSPVTKSFNRGEC

For one assay, the target named is 인간 TNFα (ACROBiosystems TNF-H5228) (human, UniProt P01375 77-233). The assay can be described thus: cell-based or functional assay.
Sequence of 인간 TNFα (ACROBiosystems TNF-H5228) (P01375 77-233 limits assumed): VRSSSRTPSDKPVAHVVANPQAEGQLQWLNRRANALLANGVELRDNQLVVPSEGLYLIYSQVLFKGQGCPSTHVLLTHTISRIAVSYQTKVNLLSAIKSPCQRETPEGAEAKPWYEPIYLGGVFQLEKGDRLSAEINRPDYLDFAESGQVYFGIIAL
Turning to B1, the “IC50 (nM), TNFα blockade assay” value came out at 0.055 nM.

Another assay concerns the target T1, 인간 OX40L 단백질 (OX40L-his; ACROBiosystems …). Put plainly: cell-based or functional assay.
As to B1, the “IC50 (nM), OX40L blockade assay” value worked out at 0.91 nM.

The target is the same in a further assay. Put plainly: cell-based or functional assay. The source holds these as a separate data set.
Consider B2, for which the “IC50 (nM), OX40L blockade assay” value was 1.95 nM and the “IC50 (μg/mL), OX40L blockade assay” value amounted to 0.293 µg/mL.

As to B3, the “IC50 (nM), OX40L blockade assay” value worked out at 0.59 nM and the “IC50 (μg/mL), OX40L blockade assay” value came to 0.117 µg/mL.

For the molecule B4, the “IC50 (nM), OX40L blockade assay” value was found to be 0.2 nM and the “IC50 (μg/mL), OX40L blockade assay” value amounted to 0.03 µg/mL.

As for B5, the “IC50 (nM), OX40L blockade assay” value was determined as 0.85 nM and the “IC50 (μg/mL), OX40L blockade assay” value was found to be 0.128 µg/mL.

With B6, the “IC50 (nM), OX40L blockade assay” value amounted to 0.41 nM and the “IC50 (μg/mL), OX40L blockade assay” value came out at 0.061 µg/mL.

Turning to B7, the “IC50 (nM), OX40L blockade assay” value was determined as 0.21 nM and the “IC50 (μg/mL), OX40L blockade assay” value turned out to be 0.041 µg/mL.
